Source: paper PMC6386614

Biological target: T1, hnRNP H1-His6 (UniProt P31943 1-449)
T1 sequence: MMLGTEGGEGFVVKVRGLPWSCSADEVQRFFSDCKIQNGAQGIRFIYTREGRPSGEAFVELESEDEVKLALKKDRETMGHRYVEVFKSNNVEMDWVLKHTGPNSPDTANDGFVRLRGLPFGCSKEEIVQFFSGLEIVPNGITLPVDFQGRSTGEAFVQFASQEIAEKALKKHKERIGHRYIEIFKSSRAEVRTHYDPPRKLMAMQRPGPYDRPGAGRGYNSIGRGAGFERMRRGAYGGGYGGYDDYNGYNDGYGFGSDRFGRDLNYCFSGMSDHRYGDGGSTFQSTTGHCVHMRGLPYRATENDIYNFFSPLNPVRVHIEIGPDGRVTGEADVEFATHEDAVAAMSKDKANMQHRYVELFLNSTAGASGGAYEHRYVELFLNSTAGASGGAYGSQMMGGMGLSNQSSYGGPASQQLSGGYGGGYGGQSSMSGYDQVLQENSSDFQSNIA
Test: EMSA

B1: r(G4C2)8 (32P) (structured_RNA)
RNA: GGGGCCGGGGCCGGGGCCGGGGCCGGGGCCGGGGCCGGGGCCGGGGCC
With B1 as the binder, how does the Kd read?
Its Kd is 65 ± 26 nM.
